Reference: publication PMC6010275

Target: β-clamp of the Escherichia coli replisome (E. coli) (UniProt P0A988)
Sequence of UniProt P0A988 (P0A988 whole entry): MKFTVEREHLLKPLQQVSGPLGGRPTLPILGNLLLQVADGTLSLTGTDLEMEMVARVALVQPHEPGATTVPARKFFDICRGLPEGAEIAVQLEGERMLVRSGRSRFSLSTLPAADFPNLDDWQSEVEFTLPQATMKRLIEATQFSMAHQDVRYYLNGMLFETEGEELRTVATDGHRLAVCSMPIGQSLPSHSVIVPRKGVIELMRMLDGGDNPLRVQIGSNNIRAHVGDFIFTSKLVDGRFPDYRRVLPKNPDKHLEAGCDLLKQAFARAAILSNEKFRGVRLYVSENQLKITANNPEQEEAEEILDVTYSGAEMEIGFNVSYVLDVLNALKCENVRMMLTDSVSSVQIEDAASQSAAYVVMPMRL

Substance: DNA polymerase I (from UniProt P00582 1-928) (enzyme)
- rate of cleavage of a 10 nucleotide 5' flap by Pol I, with template-loaded β-clamp against without (denaturing gel): 2.5 fold
